The target in the data set is PFV integrase (IN) (prototype foamy virus, UniProt P14350 752-1143). Put plainly: crystal structure.

B1: pre-processed PFV U5 end (17/19 nt) (dsDNA)
DNA 1: TACAAAATTCCATGACA
DNA 2: ATTGTCATGGAATTTTGTA
Turning to B1, the binding result is “binds”.
